From patent EP4751739A1, “ANTIBODY-DRUG CONJUGATE TARGETING C-MET AND MEDICAL USE THEREOF” (Jiangsu Hengrui Pharmaceuticals Co., Ltd., priority 2023, dated 2025)

What was measured:
[1] = test system: human gastric cancer MKN-45 nude mouse subcutaneous xenograft tumor model; assay: In vivo efficacy, MKN-45 xenograft tumor model; set-up: species or system Balb/c Nude mice; settings: 3 mg/kg single i.p. (D0)
Description: Female Balb/c Nude mice were subcutaneously inoculated with 5 × 10^6 MKN-45 cells to establish a subcutaneous tumor model. […] Each group was given a single (D0) intraperitoneal injection. The body weight and tumor size of the animals were measured twice weekly during the experiment.

[2] = test system: human lung cancer EBC-1 cells; assay: Endocytosis by c-Met-positive cells (flow cytometry); format: cell-based; settings: 20 nM
Description: Teli-VcMMAE (namely ABBV-399, in which the toxin is MMAE) and its naked antibody ABT-700 were prepared in-house based on the telisotuzumab vedotin structure disclosed on page 319 of WHO Drug Information, Vol. 30, No. 2, 2016.
The cell density was adjusted to 2 × 10^6 cells/mL using a FACS buffer (prepared with PBS 1×, pH 7.2, and 2% FBS). The suspension was added to a 96-well round-bottom plate at 50 µL/well. Groups were set as follows: endocytosis for 0 h, endocytosis for 0.5 h, endocytosis for 2 h, endocytosis for 4 h, and endocytosis for 24 h. A 40 nM (2×) dilution of an antibody or antibody-drug conjugate was added at 50 µL/well. […] A final concentration of 20 nM was achieved. The plate was incubated at 4 °C for 60 min. After the incubation, the plate was centrifuged at 400 g for 5 min, the supernatant was discarded, and the plate was washed twice with 200 µL of FACS Buffer per well. The cells were resuspended in a culture medium and subjected to 0 h, 0.5 h, 2 h, 4 h, or 24 h of endocytosis in an incubator (37 °C, 5% CO2). After different endocytosis periods, the cells were digested with TrypLE™ Express Enzyme to form a single cell suspension. After 1 wash with 200 µL of FACS buffer, a secondary antibody (Alexa Fluor® 647 AffiniPure Mouse Anti-Human IgG(H+L), 1:500, Jackson, 209-605-008) diluted in FACS buffer was added, and the plate was incubated in a dark place at 4 °C for 30 min. The plate was centrifuged at 400 g for 5 min, the supernatant was discarded, and the plate was washed twice with 200 µL of FACS buffer per well. The cells were resuspended in 50 µL of FACS buffer, and 50 µL of 4% paraformaldehyde was then added for fixation. After thorough mixing, the plate was left to stand at 4 °C in a dark place. After all samples were collected, Alexa Fluor® 647 fluorescence signals were detected using a flow cytometer. Data were analyzed using Flowjo software, and gMFI values were calculated. Endocytosis ratio = (0-h endocytosis gMFI - n-h endocytosis gMFI)/0-h endocytosis gMFI. Table 4. Evaluation of endocytosis performance

B1: Teli-VcMMAE: ABBV-399, in which the toxin is MMAE; prepared in-house based on the telisotuzumab vedotin structure (conjugate, chains of the INN, looked up)
VH: QVQLVQSGAEVKKPGASVKVSCKASGYIFTAYTMHWVRQAPGQGLEWMGWIKPNNGLANYAQKFQGRVTMTRDTSISTAYMELSRLRSDDTAVYYCARSEITTEFDYWGQGTLVTVSS
VL: DIVMTQSPDSLAVSLGERATINCKSSESVDSYANSFLHWYQQKPGQPPKLLIYRASTRESGVPDRFSGSGSGTDFTLTISSLQAEDVAVYYCQQSKEDPLTFGGGTKVEIK
modifications: vc-MMAE payload
notes: ABBV-399, in which the toxin is MMAE; prepared in-house based on the telisotuzumab vedotin structure
With B1 the “Mean tumor volume (mm^3, mean ± SEM) D0” value ([1]; D0 (baseline at grouping)) was 117± 3 mm^3, the “Mean tumor volume (mm^3, mean ± SEM) D23” value ([1]; D23) was 1354 ± 327 mm^3 and the “TGI (%) D23” value ([1]; D23) was 40.28%. The Endocytosis ratio% ([2]; 0 h) was 0.000%, the Endocytosis ratio% ([2]; 0.5 h) was 4.361% and the Endocytosis ratio% ([2]; 2 h) was 31.734%. The Endocytosis ratio% ([2]; 24 h) was 97.339%.
